From publication PMC3832974 come the findings set out here.

This data set concerns the target human alpha-thrombin (Homo sapiens, UniProt P00734;P00734 328-363;364-622). The data set is described as follows: dot blot immunoenzymatic assay on cloth; 13.5 nM thrombin; UV cross-linked; PBS (0.01 M phosphate pH 7.4, 0.85% NaCl), 13.5 nM thrombin, 20 min, room temperature; aptamers (10 uM) spotted in 0.1 M Tris-HCl pH 8.0, 0.01 M MgCl2, 0.15 M N.

B1: Apt 4 (ssDNA)
DNA: AGATGCCTGTCGAGCATGCTCTTTGGAGACAGTCCGTGGTAGGGCAGGTTGGGGTGACTTCGTGGAAGAAGCGAGACGGTGTAGCTAAACTGCTTTGTCGACGGG
Consider B1, for which the binding result is recorded as “binds”.
